Measured values reported in the supplement of paper PMC10567573.
± gives the standard deviation.

Test: protein stability index of a GFP-peptide fusion (GPS, HEK-293T) (PSI 1-6); higher = more stable
Conditions: c terminus: a fixed tail appended
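Note: 24-mer peptide tiles fused after GFP, lentivirally expressed, FACS-sorted into six equal bins by GFP/DsRed ratio, decoded by Illumina sequencing, PSI is the read-weighted mean bin number.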

Row | Sequence | protein stability index (treatment: DMSO) | protein stability index (treatment: MLN4924 1 uM, 8 h)
1 | HQEGAKMAVRLAGGLQKMVALLNK [CTNNB1] | 2.4 ± 0.11 | 2.42 ± 0.27
2 | LSAFYLSYFDMLYPEDSSWAAKAP [SPDEF] | 2.63 ± 0.59 | 2.48 ± 0.52
3 | APPTPPEEEDLRRRLKYFFMSPCD [MCOLN1] | 4.27 ± 0.23 | 4.15 ± 0.23
4 | KYGDIPRGIFVVRGENVVLLGEID [LSM1] | 2.27 ± 0.093 | 2.4 ± 0.32
5 | EEHTTILRPSYTGLSSSSARFLSR [CDC14A] | 3.57 ± 0.12 | 3.7 ± 0.19
6 | AATRGGSHLQAAAQTPPRPGPPSA [SCNN1D] | 4.93 ± 0.21 | 4.84 ± 0.1
7 | LDRVRGGRQKYKRRPEVDPLPFPG [ESRRA] | 3.68 ± 0.36 | 3.92 ± 0.41
8 | VFIISTLAIDFIDEGRLLLEFDLL [SOAT2] | 3.23 ± 0.31 | 3.03 ± 0.36
9 | RDEHRARAMKIPFTNDKIINLPVE [NFE2L1] | 4.12 ± 0.36 | 3.95 ± 0.14
10 | TIYGLHALEQGGLRAATMSAVEAA [PYCR3] | 2.85 ± 0.65 | 3.22 ± 0.8
11 | EYMETGSLEKLLASEPLPWDLRFR [RIPK4] | 2.76 ± 0.3 | 3.27 ± 0.6
12 | FVDILESDLKDDDAVPPGMESLIS [CDC25B] | 3.55 ± 0.64 | 3.94 ± 0.43
13 | GTGTGPEDGRPSLGSPYGQPPRFP [PDLIM4] | 4.37 ± 0.21 | 4.53 ± 0.22
14 | TNEWEKRLSTSPVRLAARQEDAPM [EPB41L3] | 4.83 ± 0.16 | 4.51 ± 0.44
15 | GDWLLTANGSEIHKHVHFSSSFTS [SLC22A15] | 2.59 ± 0.25 | 2.49 ± 0.36
16 | MLRSGLSGLGSCLPGSYLSSECHT [KRT36] | 2.42 ± 0.12 | 2.37 ± 0.092
17 | REAKMICFKSVAKTPYDTSRRQEK [ELOA2] | 3.97 ± 0.22 | 4.11 ± 0.58
18 | GDELYEQSDEEQDSVKVALLETNP [CLPTM1] | 5.37 ± 0.19 | 5.44 ± 0.17
19 | RSLLRLRATRAGAAEEPGVRGLLA [C2CD2L] | 3.17 ± 0.43 | 3.44 ± 0.18
20 | SWSDNERSSSRINIPERASGPEGN [FAM104B] | 4.79 ± 0.11 | 4.73 ± 0.32
21 | GVNYPKPMVNHAEASRLNIERMKQ [CRY1] | 4.2 ± 0.3 | 4.11 ± 0.62
22 | FQFASIDVAGNLDYKALSYVITHG [MYL5] | 2.51 ± 0.47 | 2.29 ± 0.31
23 | FGRYLEHLEVKFMNPYNAVLTKKF [FBXO39] | 2.24 ± 0.45 | 2.04 ± 0.16

Row | Sequence | protein stability index (treatment: DMSO) | protein stability index (treatment: MLN4924 1 uM, 8 h)
24 | ARLQEPVTFRDVAVDFTQEEWGQL [ZNF8] | 4.13 ± 0.2 | 4.07 ± 0.22
25 | GVDSMAEEGTSDSNTGSESNSATV [SMARCE1] | 5.41 ± 0.14 | 5.57 ± 0.41
26 | GARDGIRYLEAEFKKGNRYIRCQK [SMG5] | 3.14 ± 0.3 | 3.57 ± 0.32
27 | VYDNEKKLQLQLNETKSQAFVSNS [PLD5] | 4.48 ± 0.47 | 4.33 ± 0.19
28 | LRKREKAEEKERRRKEYDALKAAK [LRRC59] | 4.66 ± 0.4 | 4.79 ± 0.31
29 | LPWLSLRALKFRERDALEAVFRFW [DNAAF3] | 2.46 ± 0.24 | 2.49 ± 0.28
30 | PPKRMLGADREFIEARRRALKRFV [SNX8] | 3.36 ± 0.43 | 3.62 ± 0.17
31 | HLCLRKADQKLVIIKQIPVEQMTK [NEK8] | 2.46 ± 0.19 | 2.75 ± 0.23
32 | STKAIPEKYGAVREVILKELAEAT [ZBED1] | 3.88 ± 0.32 | 4.08 ± 0.35
33 | MQGNQILVFPSSSSSSSSQAPGQP [ZBTB22] | 4.28 ± 0.24 | 4.22 ± 0.22
34 | NILFDFVKKKKEEGVIDSSDKEIV [EIF5] | 3.65 ± 0.12 | 3.74 ± 0.27
35 | KEVVKKHSQFIGYPITLYLEKERE [HSP90AB1] |  | 3.32 ± 0.24
36 | GKSLLLMTRNDVLTGLQLKLGPAL [SAMD13] | 2.27 ± 0.4 | 2.26 ± 0.28
37 | DMMVMGRKPDPMCVFTYVQSLYNH [SMTNL2] | 2.28 ± 0.24 | 2.2 ± 0.34
38 | DQDEGEWGLDQEQVFSLGDGVSGG [ZBED1] | 5.57 ± 0.17 | 5.42 ± 0.12
39 | LEFFYGIATATEIAYYSYIYSVVD [SLC19A2] | 3.5 ± 0.48 | 3.27 ± 0.46
40 | YHEAPMTRKHYQVTGYGINGTGDS [POMT2] | 2.97 ± 0.36 | 3.42 ± 0.31
41 | MGLYDGMEHLIYGEPRKLLTQDWV [MAGEA10] | 2.25 ± 0.31 | 2.28 ± 0.51
42 | ERRGGLPPLPLHPGGDQGGPPVGP [WAS] | 4.95 ± 0.4 | 5.22 ± 0.2
43 | QITSRVVSAATQLRHFFLVEDLVD [RTN2] | 2.83 ± 0.24 | 3 ± 0.27
44 | IKGKSCRTITFEQFQEALEELAKK [TPPP] | 2.53 ± 0.26 | 2.62 ± 0.36
45 | LLLELKGLQEEPVEGFRVTLVDEG [CDC34] | 2.64 ± 0.29 | 2.66 ± 0.21
